Assay results as given in patent publication US20260167693A1.

Target: human CD19 (human) (UniProt P15391)
Test: cell-based or functional assay

human CD19 (human), sequence (P15391 20-556): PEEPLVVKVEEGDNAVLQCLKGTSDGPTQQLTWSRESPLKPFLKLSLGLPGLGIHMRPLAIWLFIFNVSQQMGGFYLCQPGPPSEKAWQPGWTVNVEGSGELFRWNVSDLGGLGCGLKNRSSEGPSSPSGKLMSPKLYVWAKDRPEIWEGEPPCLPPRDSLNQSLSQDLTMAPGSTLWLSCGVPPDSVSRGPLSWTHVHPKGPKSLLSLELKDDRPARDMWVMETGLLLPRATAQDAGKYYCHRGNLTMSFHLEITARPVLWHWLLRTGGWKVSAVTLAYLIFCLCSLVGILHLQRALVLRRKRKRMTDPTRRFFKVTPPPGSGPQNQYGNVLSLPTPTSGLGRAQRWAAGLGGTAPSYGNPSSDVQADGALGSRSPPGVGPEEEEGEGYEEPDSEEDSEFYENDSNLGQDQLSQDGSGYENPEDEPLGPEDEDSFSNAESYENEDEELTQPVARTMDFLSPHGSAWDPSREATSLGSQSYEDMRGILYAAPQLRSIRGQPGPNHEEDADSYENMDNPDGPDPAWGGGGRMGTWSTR

NFAT-GFP (%) after overnight co-culture with RAJI cells: 30.2%
Substance: CD8SP-CD19BU12(vL-vH)-MYC-BBz-PAC
